How the values were obtained:
[1] = target: T1, BUBR1_(57-220), recombinant protein (human, UniProt O60566 57-220); assay: ITC; BUBR1_(57-220) at 27 μM titrated against 200 μM of Blinkin peptide S208-K226; settings: both partners purified
T1 construct: BUBR1, human, residues 57-220 (TPR-containing domain); 15N,13C-labelled for NMR; also called native BUBR1; free BUBR1

[2] = target: T1, BUBR1_(57-220), recombinant protein; assay: fluorescence-based thermal shift assay; Tm of BUBR1_(57-220) without and with Blinkin S208-K226 peptide; settings: both partners purified

T1 sequence (O60566 57-220): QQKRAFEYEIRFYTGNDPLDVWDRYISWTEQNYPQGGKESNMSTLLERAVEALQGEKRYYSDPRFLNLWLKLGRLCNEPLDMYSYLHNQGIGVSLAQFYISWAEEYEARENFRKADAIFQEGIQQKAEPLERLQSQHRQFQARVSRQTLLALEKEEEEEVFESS

Kd [1]: 9.3 ± 0.4 µM
dH [1]: -2.7 kcal/mol
stoichiometry N [1]: 1
B1: Blinkin S208-K226 peptide (peptide, UniProt Q8NG31-2 208-226, looked up)
peptide: SSENKIDFNDFIKRLKTGK
notes: Blinkin (KNL1, CASC5), human, NCBI NP_653091.2, residues S208-K226; peptide synthesis is in the supplement; also called Blinkin peptide; source: synthetic peptide
increase of the Tm of BUBR1_(57-220) on addition of the peptide [2]: ~2 °C

Reference: publication PMC3267040, “Structure of a Blinkin-BUBR1 Complex Reveals an Interaction Crucial for Kinetochore-Mitotic Checkpoint Regulation via an Unanticipated Binding Site” (Structure(London, England:1993), 2011)
